The chains are these.
B1: unfolded protein CH1 (immunoglobulin constant heavy chain domain) (domain or fragment)
chain: not shown
notes: immunoglobulin constant heavy chain domain CH1, intrinsically unfolded without CL; also called CH1 substrate; source: expressed as previously described (Marcinowski et al., 2011)
B2: Ire1 luminal domain, complete (region I–V, residues 24–440) (domain or fragment, human, UniProt O75460 24-440, looked up)
chain: STVTLPETLLFVSTLDGSLHAVSKRTGSIKWTLKEDPVLQVPTHVEEPAFLPDPNDGSLYTLGSKNNEGLTKLPFTIPELVQASPCRSSDGILYMGKKQDIWYVIDLLTGEKQQTLSSAFADSLCPSTSLLYLGRTEYTITMYDTKTRELRWNATYFDYAASLPEDDVDYKMSHFVSNGDGLVVTVDSESGDVLWIQNYASPVVAFYVWQREGLRKVMHINVAVETLRYLTFMSGEVGRITKWKYPFPKETEAKSKLTPTLYVGKYSTSLYASPSMVHEGVAVVPRGSTLPLLEGPQTDGVTIGDKGECVITPSTDVKFDPGLKSKNKLNYLRNYWLLIGHHETPLSASTKMLERFPNNLPKHRENVIPADSEKKSFEEVINLVDQTSENAPTTVSRDVEEKPAHAPARPEAPVDSM
notes: Ire1, human, luminal domain regions I-V, residues 24-440; also called Ire1 I–V; Ire1 LD; source: E. coli BL21 (DE3), purified (Co2+-NTA, anion exchange, SEC); not shown: His6, N-terminal, cleaved
B3: Perk luminal domain region I–IV (residues 54–403) (domain or fragment, human, UniProt Q9NZJ5 54-403, looked up)
chain: TSATRVPAAGAVAAAEVTVEDAEALPAAAGEQEPRGPEPDDETELRPRGRSLVIISTLDGRIAALDPENHGKKQWDLDVGSGSLVSSSLSKPEVFGNKMIIPSLDGALFQWDQDRESMETVPFTVESLLESSYKFGDDVVLVGGKSLTTYGLSAYSGKVRYICSALGCRQWDSDEMEQEEDILLLQRTQKTVRAVGPRSGNEKWNFSVGHFELRYIPDMETRAGFIESTFKPNENTEESKIISDVEEQEAAIMDIVIKVSVADWKVMAFSKKGGHLEWEYQFCTPIASAWLLKDGKVIPISLFDDTSYTSNDDVLEDEEDIVEAARGATENSVYLGMYRGQLYLQSSVRI
notes: Perk, human, luminal domain regions I-IV, residues 54-403; also called Perk I–IV; source: E. coli BL21 (DE3), purified (Co2+-NTA, anion exchange, SEC); not shown: His6, N-terminal, cleaved
B4: Perk luminal domain, complete (region I–V, residues 54–509) (domain or fragment, human, UniProt Q9NZJ5 54-509, looked up)
chain: TSATRVPAAGAVAAAEVTVEDAEALPAAAGEQEPRGPEPDDETELRPRGRSLVIISTLDGRIAALDPENHGKKQWDLDVGSGSLVSSSLSKPEVFGNKMIIPSLDGALFQWDQDRESMETVPFTVESLLESSYKFGDDVVLVGGKSLTTYGLSAYSGKVRYICSALGCRQWDSDEMEQEEDILLLQRTQKTVRAVGPRSGNEKWNFSVGHFELRYIPDMETRAGFIESTFKPNENTEESKIISDVEEQEAAIMDIVIKVSVADWKVMAFSKKGGHLEWEYQFCTPIASAWLLKDGKVIPISLFDDTSYTSNDDVLEDEEDIVEAARGATENSVYLGMYRGQLYLQSSVRISEKFPSSPKALESVTNENAIIPLPTIKWKPLIHSPSRTPVLVGSDEFDKCLSNDKFSHEEYSNGALSILQYPYDNGYYLPYYKRERNKRSTQITVRFLDNPHYNKN
notes: Perk, human, luminal domain regions I-V, residues 54-509; see recheck on the SEC MALS mass; also called Perk I–V; Perk LD; source: E. coli BL21 (DE3), purified (Co2+-NTA, anion exchange, SEC); not shown: His6, N-terminal, cleaved
B5: Ire1 luminal domain region I–IV (residues 24–390) (domain or fragment, human, UniProt O75460 24-390, looked up)
chain: STVTLPETLLFVSTLDGSLHAVSKRTGSIKWTLKEDPVLQVPTHVEEPAFLPDPNDGSLYTLGSKNNEGLTKLPFTIPELVQASPCRSSDGILYMGKKQDIWYVIDLLTGEKQQTLSSAFADSLCPSTSLLYLGRTEYTITMYDTKTRELRWNATYFDYAASLPEDDVDYKMSHFVSNGDGLVVTVDSESGDVLWIQNYASPVVAFYVWQREGLRKVMHINVAVETLRYLTFMSGEVGRITKWKYPFPKETEAKSKLTPTLYVGKYSTSLYASPSMVHEGVAVVPRGSTLPLLEGPQTDGVTIGDKGECVITPSTDVKFDPGLKSKNKLNYLRNYWLLIGHHETPLSASTKMLERFPNNLPKHRENV
notes: Ire1, human, luminal domain regions I-IV, residues 24-390; also called Ire1 I–IV; source: E. coli BL21 (DE3), purified (Co2+-NTA, anion exchange, SEC); not shown: His6, N-terminal, cleaved
B6: BiP ATPase domain (residues 28–405), His6-tag removed (domain or fragment)
chain: not shown
notes: BiP, human, ATPase domain, residues 28-405; also called BiP's ATPase domain; source: E. coli BL21 (DE3), purified (Co2+-NTA, anion exchange, SEC); not shown: His6, N-terminal, cleaved
B7: His6-tagged BiP ATPase domain (residues 28–405) (domain or fragment)
chain: not shown
notes: BiP, human, ATPase domain, residues 28-405; also called His6-tagged BiP ATPase domain protein; source: E. coli BL21 (DE3), purified (Co2+-NTA, anion exchange, SEC); not shown: His6, N-terminal, kept
B8: Ire1 luminal domain region II–IV (residues 32–390) (domain or fragment, human, UniProt O75460 32-390, looked up)
chain: LLFVSTLDGSLHAVSKRTGSIKWTLKEDPVLQVPTHVEEPAFLPDPNDGSLYTLGSKNNEGLTKLPFTIPELVQASPCRSSDGILYMGKKQDIWYVIDLLTGEKQQTLSSAFADSLCPSTSLLYLGRTEYTITMYDTKTRELRWNATYFDYAASLPEDDVDYKMSHFVSNGDGLVVTVDSESGDVLWIQNYASPVVAFYVWQREGLRKVMHINVAVETLRYLTFMSGEVGRITKWKYPFPKETEAKSKLTPTLYVGKYSTSLYASPSMVHEGVAVVPRGSTLPLLEGPQTDGVTIGDKGECVITPSTDVKFDPGLKSKNKLNYLRNYWLLIGHHETPLSASTKMLERFPNNLPKHRENV
notes: Ire1, human, luminal domain regions II-IV, residues 32-390; With cross linker it forms dimer and tetramer species; also called Ire1 II–IV; Ire1 LD for cross-link experiment; source: E. coli BL21 (DE3), purified (Co2+-NTA, anion exchange, SEC); not shown: His6, N-terminal, cleaved

Series [1] concerns the target T1, BiP substrate binding domain (residues 422–654), His6-tag removed (human, UniProt P11021 422-654).
T1 construct: also called BiP SBD; source: E. coli BL21 (DE3), purified (Co2+-NTA, anion exchange, SEC); not shown: His6, N-terminal, cleaved
The series can be described thus: MST; Monolith NT.115; buffer B (50 mM HEPES pH 7.5, 75 mM NaCl, 10% glycerol, 1 mM TCEP), no nucleotide; one partner labelled (Red-NHS) at 50 nM, sixteen twofold dilutions of the unlabelled partner (which was labelled is not told); 25°C; three independent experiments averaged. The settings on record: both partners purified.

The target in series [2] is T2, full-length BiP (BiP FL, residues 28–654), His6-tag removed (human, UniProt P11021 28-654).
T2 construct: BiP (ER Hsp70 chaperone), human, residues 28-654; In MST one partner carried the Red-NHS label; also called ER Hsp70 chaperone; source: E. coli BL21 (DE3), purified (Co2+-NTA, anion exchange, SEC); not shown: His6, N-terminal, cleaved
Described as above. The settings on record: both partners purified.

Series [3] deals with T3, ΔEspP, yeast Ire1-specific unfolded peptide mimic.
T3 construct: also called unfolded protein peptide mimic; source: bought: AltaBiosciences
The series is described as follows: ITC. The settings on record: both partners purified.

The series “SEC-MALS” concerns the molecule itself. The series is described as follows: SEC-MALS. Background: Size exclusion chromatography separates by hydrodynamic size, large species first.
Series [4] concerns the target B6. The series can be described thus: MST; Monolith NT.115; buffer B (50 mM HEPES pH 7.5, 75 mM NaCl, 10% glycerol, 1 mM TCEP), no nucleotide; one partner labelled (Red-NHS) at 50 nM, sixteen twofold dilutions of the unlabelled partner (which was labelled is not told); 25°C; three independent experiments averaged. To be noted: both partners purified.
Series [5] has as its target B4. The description is as above. To be noted: both partners purified.
In series [6] the target is B2. Described as above. To be noted: both partners purified.
For series [7], the target named is B8. The series can be described thus: cross-linking; EGS, 50-fold molar excess, 1 hr; proteins at 50 μM in 50 mM Hepes pH 8.0, 50 mM NaCl, 5% glycerol, 5 mM DTT; alone or in 1:1 molar mixture; SDS-PAGE and anti-His6 blot. The settings on record: both partners purified.
Series [8] concerns the molecule itself. Described as above.

The source of these data is paper PMC4337721, “Noncanonical binding of BiP ATPase domain to Ire1 and Perk is dissociated by unfolded protein CH1 to initiate ER stress signaling” (eLife, 2015).

Several values for one entry are separate records, joined by “and”; a condition that tells them apart may be missing. Identical values can stand only once.

In general, Kd refers to a measure of binding affinity in units of concentration. A low value points to tighter binding. A word on the stoichiometry N: it is the number of molecules, sites or subunits per partner or assembly.

T2 sequence (P11021 28-654): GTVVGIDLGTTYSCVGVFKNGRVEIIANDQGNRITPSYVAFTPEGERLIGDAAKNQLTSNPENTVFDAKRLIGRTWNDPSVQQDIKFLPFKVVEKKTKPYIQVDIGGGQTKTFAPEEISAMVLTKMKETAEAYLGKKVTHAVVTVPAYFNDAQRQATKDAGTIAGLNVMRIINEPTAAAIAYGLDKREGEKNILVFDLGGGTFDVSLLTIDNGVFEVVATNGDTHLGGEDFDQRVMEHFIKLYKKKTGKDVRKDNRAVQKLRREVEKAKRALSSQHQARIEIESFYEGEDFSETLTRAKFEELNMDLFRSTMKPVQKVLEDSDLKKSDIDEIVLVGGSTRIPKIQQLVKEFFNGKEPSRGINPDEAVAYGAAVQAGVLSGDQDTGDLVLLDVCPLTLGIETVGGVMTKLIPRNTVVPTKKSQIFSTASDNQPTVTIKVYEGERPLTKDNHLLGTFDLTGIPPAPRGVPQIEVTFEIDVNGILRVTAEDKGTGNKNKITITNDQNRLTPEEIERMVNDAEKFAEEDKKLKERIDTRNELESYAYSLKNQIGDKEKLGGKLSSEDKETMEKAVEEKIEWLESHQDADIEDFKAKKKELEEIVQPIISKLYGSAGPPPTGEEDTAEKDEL
T1 sequence (P11021 422-654): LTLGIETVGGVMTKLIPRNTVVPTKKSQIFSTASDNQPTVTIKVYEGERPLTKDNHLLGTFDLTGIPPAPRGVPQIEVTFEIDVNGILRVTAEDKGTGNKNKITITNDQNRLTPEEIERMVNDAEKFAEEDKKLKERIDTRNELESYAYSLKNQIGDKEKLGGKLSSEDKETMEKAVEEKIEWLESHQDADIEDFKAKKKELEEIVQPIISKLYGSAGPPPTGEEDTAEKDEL

As for B1, the values for the Kd in [1] and in series [2] were 5.1 µM and 8.7 µM, respectively. Regarding B2, the dissociation constant (Kd) in series [3] came out at 6.4 µM; in [2] it was 1.33 µM. In addition, in “SEC-MALS”, the “stoichiometry N” value was found to be 2. Take B3: the binding result in [4] is “binds”. In the case of B4, the dissociation constant (Kd) is 9.3 µM in series [3] and 1.92 µM in series [2]. The “stoichiometry N” value in “SEC-MALS” was found to be 2. In the case of B5, the binding result in series [4] was “binds”. Turning to B6, the Kd in series [5] came out at 2.05 µM; in series [6], 1.97 µM.

For the molecule B7, the “stoichiometry N” value in [7] is 1 1:1 and 2 2:1 (which of the two stands twice is not said). For the molecule B8, the “stoichiometry N” value in series [8] was 2 and 4. Also, the binding result in series [4] is given as “binds”.
